{
  "source": "paper PMC8056755",
  "about": "(The Journal of Cell Biology, 2021)",
  "binders": {"B1": {"name": "FIT2-Strep-His8-GFP fusion protein, reconstituted into proteoliposomes (natural protein)", "chain": "MEHLERCEWLLRGTLVRAAVRRYLPWALVASMLAGSLLKELSPLPESYLSNKRNVLNVYFVKVAWAWTFCLLLPFIALTNYHLTGKAGLVLRRLSTLLVGTAIWYICTSIFSNIEHYTGSCYQSPALEGVRKEHQSKQQCHQEGGFWHGFDISGHSFLLTFCALMIVEEMSVLHEVKTDRSHCLHTAITTLVVALGILTFIWVLMFLCTAVYFHNLSQKVFGTLFGLLSWYGTYGFWYPKAFSPGLPPQSCSLNLKQDSYKK"}},
  "key": {"[1]": {"target": "T1, purified His-tagged septin 7 (full length) (UniProt Q16181 1-437)", "T1 sequence": "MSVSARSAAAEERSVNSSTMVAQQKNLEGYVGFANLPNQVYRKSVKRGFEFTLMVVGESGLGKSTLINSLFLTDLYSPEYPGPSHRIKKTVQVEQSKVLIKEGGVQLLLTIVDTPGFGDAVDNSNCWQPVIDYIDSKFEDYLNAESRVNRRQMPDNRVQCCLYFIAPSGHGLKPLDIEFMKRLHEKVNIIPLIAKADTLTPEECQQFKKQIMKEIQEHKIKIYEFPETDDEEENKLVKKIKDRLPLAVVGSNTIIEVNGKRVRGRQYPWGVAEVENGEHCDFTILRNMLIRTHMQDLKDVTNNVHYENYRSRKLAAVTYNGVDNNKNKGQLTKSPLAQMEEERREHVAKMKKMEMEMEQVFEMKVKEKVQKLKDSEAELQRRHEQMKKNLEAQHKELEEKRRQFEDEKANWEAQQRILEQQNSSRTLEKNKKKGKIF", "experiment": "proteoliposome coflotation"}, "[2]": {"target": "T1, purified His-tagged septin 7 (full …)", "experiment": "BLI"}, "[3]": {"target": "T2, SEPT7-ΔCC (septin 7 residues 1-331, lacking the coiled coil domain), His-tagged (UniProt Q16181 1-331)", "T2 sequence": "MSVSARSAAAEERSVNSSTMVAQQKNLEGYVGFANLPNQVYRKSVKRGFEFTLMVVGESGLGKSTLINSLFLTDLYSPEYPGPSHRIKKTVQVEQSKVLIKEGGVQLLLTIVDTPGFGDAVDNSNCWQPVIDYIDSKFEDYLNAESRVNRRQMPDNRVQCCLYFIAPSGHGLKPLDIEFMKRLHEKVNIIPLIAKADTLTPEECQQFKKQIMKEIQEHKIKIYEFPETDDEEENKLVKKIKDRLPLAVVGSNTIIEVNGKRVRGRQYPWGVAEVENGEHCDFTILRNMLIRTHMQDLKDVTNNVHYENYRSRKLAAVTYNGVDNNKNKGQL", "experiment": "BLI"}},
  "note": "No end group written: not given here.",
  "data": [
    {"binder": "B1", "values": [
      {"measurement": "binding result", "setting": "[1]", "result": "binds"}
    ]},
    {"binder": "MEHLERCEWLLRGTLVRAAVRRY (also: biotinylated, site not given here)", "note": "[biotinylated FIT2 N-terminal loop peptide (NTL, residues 1-23)]", "values": [
      {"measurement": "binding result", "setting": "[2]", "result": "binds"},
      {"measurement": "binding result", "setting": "[3]", "result": "binds"}
    ]}
  ]
}
